Measured values: article doi:10.64898/2025.12.16.694593 (bioRxiv, 2025)

Experiments:
[1] = biological target: His-SNAP-Mtb Ku (Mycobacterium tuberculosis) (UniProt P9WKD9); assay: SEC
[2] = biological target: Mtb LigD WT (Mycobacterium tuberculosis, UniProt P9WNV3 1-759); assay: […]
Mtb LigD WT, sequence (P9WNV3 whole entry): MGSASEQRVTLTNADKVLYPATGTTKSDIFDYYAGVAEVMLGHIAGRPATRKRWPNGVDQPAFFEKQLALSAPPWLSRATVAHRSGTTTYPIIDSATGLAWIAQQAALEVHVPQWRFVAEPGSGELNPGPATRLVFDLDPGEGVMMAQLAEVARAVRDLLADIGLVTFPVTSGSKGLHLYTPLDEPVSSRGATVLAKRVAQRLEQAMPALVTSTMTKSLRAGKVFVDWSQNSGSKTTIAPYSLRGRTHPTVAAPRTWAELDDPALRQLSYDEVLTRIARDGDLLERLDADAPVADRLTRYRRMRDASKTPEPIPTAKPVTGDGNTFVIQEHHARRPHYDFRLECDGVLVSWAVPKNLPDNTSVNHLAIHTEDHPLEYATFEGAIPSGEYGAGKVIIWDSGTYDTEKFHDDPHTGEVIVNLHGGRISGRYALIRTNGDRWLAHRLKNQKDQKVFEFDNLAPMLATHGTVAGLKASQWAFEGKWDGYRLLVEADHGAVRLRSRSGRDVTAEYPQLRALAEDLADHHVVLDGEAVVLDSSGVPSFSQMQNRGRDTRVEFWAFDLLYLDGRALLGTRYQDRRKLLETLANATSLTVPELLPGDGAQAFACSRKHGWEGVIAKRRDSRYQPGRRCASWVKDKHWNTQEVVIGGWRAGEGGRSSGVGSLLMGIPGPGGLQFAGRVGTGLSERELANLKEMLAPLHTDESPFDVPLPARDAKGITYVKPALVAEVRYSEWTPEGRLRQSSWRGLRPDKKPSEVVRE

Molecule | stoichiometry N [1] | binding result [2]
His-SNAP-Mtb Ku (from UniProt P9WKD9 1-273) (natural protein) | 2 | –
His-SNAP-Mtb Ku (natural protein) MRAIWTGSIAFGLVNVPVKVYSATADHDIRFHQVHAKDNGRIRYKRVCEACGEVVDYRDLARAYESGDGQMVAITDDDIASLPEERSREIEVLEFVPAADVDPMMFDRSYFLEPDSKSSKSYVLLAKTLAETDRMAIVHFTLRNKTRLAALRVKDFGKREVMMVHTLLWPDEIRDPDFPVLDQKVEIKPAELKMAGQVVDSMADDFNPDRYHDTYQEQLQELIDTKLEGGQAFTAEDQPRLLDEPEDVSDLLAKLEASVKARSKANSNVPTPP | – | binds
